Source: paper PMC7464691, “Modulation of Amyloidogenic Peptide Aggregation by Photoactivatable CO-Releasing Ruthenium(II) Complexes” (Pharmaceuticals, 2020)

Molecular target: the molecule itself
Assay: ESI-MS; peptide 100 uM in 10 mM borate buffer pH 9, incubated with compound 2 (1:10) for 0 h (UV-irradiated) or 24 h (not irradiated), diluted in 15 mM ammonium acetate

B1: nucleophosmin 1 (NPM1) 264-277, second helix (H2) of the C-terminal domain (peptide)
peptide: Ac-VEAKFINYVKNCFR-NH2
notes: nucleophosmin 1 (NPM1), helix H2 of the C-terminal domain, residues 264-277; By ESI-MS the peptide is present as a monomer and as a disulfide-bridged dimer; also called NMP1_(264–277); NPM1_(264–277)(M); source: synthetic peptide (SPPS), treated with HFIP, purified by RP-HPLC
stoichiometry N: 2
